Measurements taken from US6180103A, “Peptide p277 analogs, and pharmaceutical compositions comprising them for treatment or diagnosis of diabetes” (Yeda Research and Development Co., Ltd., priority 1994, dated 2001).

System: T cells of IDDM patients and healthy blood-donors
Test: Proliferative T cell response of IDDM patients and healthy blood donors
Type: cell-based, human
Settings: for Incidence of T-cell responses: positive = SI of 3 or greater

B1: hsp60: whole recombinant hsp60; human 60 kDa heat shock protein (protein, UniProt P10809 27-573, looked up)
60 kDa heat shock protein, …: AKDVKFGADARALMLQGVDLLADAVAVTMGPKGRTVIIEQSWGSPKVTKDGVTVAKSIDLKDKYKNIGAKLVQDVANNTNEEAGDGTTTATVLARSIAKEGFEKISKGANPVEIRRGVMLAVDAVIAELKKQSKPVTTPEEIAQVATISANGDKEIGNIISDAMKKVGRKGVITVKDGKTLNDELEIIEGMKFDRGYISPYFINTSKGQKCEFQDAYVLLSEKKISSIQSIVPALEIANAHRKPLVIIAEDVDGEALSTLVLNRLKVGLQVVAVKAPGFGDNRKNQLKDMAIATGGAVFGEEGLTLNLEDVQPHDLGKVGEVIVTKDDAMLLKGKGDKAQIEKRIQEIIEQLDVTTSEYEKEKLNERLAKLSDGVAVLKVGGTSDVEVNEKKDRVTDALNATRAAVEEGIVLGGGCALLRCIPALDSLTPANEDQKIGIEIIKRTLKIPAMTIAKNAGVEGSLIVEKIMQSSSEVGYDAMAGDFVNMVEKGIIDPTKVVRTALLDAAGVASLLTTAEVVVTEIPKEEKDPGMGAMGGMGGGMGGGMF
Healthy blood donors (n=14)
  Incidence of T-cell responses: 21%
IDDM patient 1. patient eight, 3.5 months since diagnosis
  T-cell responses (stimulation index): + (SI values of 3 or greater were considered to be positive)
IDDM patient 3. H, 6 months since diagnosis
  T-cell responses (stimulation index): + (SI values of 3 or greater were considered to be positive)
IDDM patient 4. patient seven, 3 weeks since diagnosis
  T-cell responses (stimulation index): + (SI values of 3 or greater were considered to be positive)
IDDM patient 4. patient seven, 5 weeks since diagnosis
  T-cell responses (stimulation index): + (SI values of 3 or greater were considered to be positive)
IDDM patient 5. SD, 6 weeks since diagnosis
  T-cell responses (stimulation index): + (SI values of 3 or greater were considered to be positive)
IDDM patient 6. P, 4 weeks since diagnosis
  T-cell responses (stimulation index): - (SI values of 3 or greater were considered to be positive)
IDDM patient 7. G, 5 weeks since diagnosis
  T-cell responses (stimulation index): + (SI values of 3 or greater were considered to be positive)
IDDM patient 7. G, 7 weeks since diagnosis
  T-cell responses (stimulation index): + (SI values of 3 or greater were considered to be positive)
IDDM patient 9. patient two, 2 weeks since diagnosis
  T-cell responses (stimulation index): + (SI values of 3 or greater were considered to be positive)
IDDM patient 10. T, 4 weeks since diagnosis
  T-cell responses (stimulation index): + (SI values of 3 or greater were considered to be positive)
IDDM patient 12. patient nine, 6 weeks since diagnosis
  T-cell responses (stimulation index): - (SI values of 3 or greater were considered to be positive)
IDDM patient 15. patient five, 3 weeks since diagnosis
  T-cell responses (stimulation index): - (SI values of 3 or greater were considered to be positive)
IDDM patient 16. patient one, 2 months since diagnosis
  T-cell responses (stimulation index): + (SI values of 3 or greater were considered to be positive)
IDDM patient 17. patient six, 4 weeks since diagnosis
  T-cell responses (stimulation index): - (SI values of 3 or greater were considered to be positive)
IDDM patient 18. patient four, 4 weeks since diagnosis
  T-cell responses (stimulation index): + (SI values of 3 or greater were considered to be positive)
IDDM patient 19. A, 11.5 years since diagnosis
  T-cell responses (stimulation index): + (SI values of 3 or greater were considered to be positive)
IDDM patient 20. N, 7.5 years since diagnosis
  T-cell responses (stimulation index): + (SI values of 3 or greater were considered to be positive)
IDDM patient 21. A, 5.7 years since diagnosis
  T-cell responses (stimulation index): + (SI values of 3 or greater were considered to be positive)
IDDM patients (n=21)
  Incidence of T-cell responses: 86%
Healthy blood donor 1
  T-cell responses (stimulation index): - (SI values of 3 or greater were considered to be positive)
Healthy blood donor 2
  T-cell responses (stimulation index): - (SI values of 3 or greater were considered to be positive)
Healthy blood donor 4
  T-cell responses (stimulation index): - (SI values of 3 or greater were considered to be positive)
Healthy blood donor 5
  T-cell responses (stimulation index): + (SI values of 3 or greater were considered to be positive)
Healthy blood donor 6
  T-cell responses (stimulation index): - (SI values of 3 or greater were considered to be positive)
Healthy blood donor 7
  T-cell responses (stimulation index): - (SI values of 3 or greater were considered to be positive)
Healthy blood donor 8
  T-cell responses (stimulation index): - (SI values of 3 or greater were considered to be positive)
Healthy blood donor 9
  T-cell responses (stimulation index): - (SI values of 3 or greater were considered to be positive)
Healthy blood donor 10
  T-cell responses (stimulation index): - (SI values of 3 or greater were considered to be positive)
Healthy blood donor 11
  T-cell responses (stimulation index): + (SI values of 3 or greater were considered to be positive)
Healthy blood donor 12
  T-cell responses (stimulation index): - (SI values of 3 or greater were considered to be positive)
Healthy blood donor 13
  T-cell responses (stimulation index): + (SI values of 3 or greater were considered to be positive)
Healthy blood donor 14
  T-cell responses (stimulation index): - (SI values of 3 or greater were considered to be positive)
